# Experimental data reported in publication PMC11370580.
# Assays:
# [1] = tested on: HMGB1-WT (Homo sapiens); test: restriction enzyme accessibility
# [2] = tested on: HMGB1-WT (Homo sapiens); test: EMSA; settings: scale: fold lower affinity than with flanking DNA
Substance,K half [1] [nM],binding signal [2]
40/40-Pst137 nucleosome,113,–
core nucleosome (0/0),–,10
